Experiment: soluble on expression in E. coli; label from the status in PepcDB or PDB records
With “MSLNCKQRRYMKILIVDDNEQYRKLLSAIFVDRGWEAIDAPEGNKGMELLREHIPDVILSDIMMPRMDGFQFLRALRTSAFGDIIFIFYTSTYTKASHRDFALSLGADAYIAKPLDPEDIVQALMDILDRKELREGHHHHHH” the “soluble on expression in E. coli” value was “not soluble”.
In the case of “MSLNDLLTRRAVVAGMGVLGLGLLAGCSPARGLEFKYGKNMSNEILGRKFSLKDPQGNVRTLSSFYGSMPMVFFGFTQCPAVCPTTLARAAQIRKLLRGRDRDLFQVVFITLDPERDTPEVLDAYVKAFDPTFTALTGTPEEIAAVAKEFKVFYEKVPAGDTYTISHSSTSYVYDTRGTLRLSLGHSLNAKECAEDLVTLMEIEGHHHHHH”, the “soluble on expression in E. coli” value is reported as “soluble”.
In the case of “MSLNELDCLETASIKIDPFTLELSRSLSTAVGDIEQRRGHVVCVDINGTVGIGEATPLPGWTERYPDCQDALRSVSTDSTSTSTSTSTSTSASEITPDTRSAAHHGIELACVDAMARHHDSSLARFLSTDTPATSIPVNATIGDCDSEQTYKKAESAVEDGYTTIKLKVGARDIESDCNRVIAARSAVGEDITLRVDANGAWNRTAAERFLETARTVDIAYIEQPLPASDLDGHALLRGRGVDIAVDESMNRTSPEQIFAADAADIIVCKPMALGGPKQTLAVARKAEAVDIDTVVTTTIDGVIARMGAVHIAAALPGSGSNARACGLATGSMLADDLTANPVSISDGEISVPTGPGLAGGALRSCCNREGHHHHHH”, the “soluble on expression in E. coli” value is reported as “soluble”.
For “MSLNEQAPVIAVLLTERTRRMMLDDAAIAQLNALGEVRWPTGAAIDATDVDQLLHGAVACLTGWGTPPFDPAARQRHPQLALVAHSAGSVRTLVPARLFDDGIRVTHAASKIAASVAEFVVAEALLAMRGIHRLHHQLRNGGEWLDVRAAVPQKLLGSRTVGIVGAGYVGRAVMRLLVPFGCRVLVVDPFLHDSEAAALGVFRAGLNDMLAQADMVSLHAPVLPETRRMIGARELALLRPGTLFINTARAELVDEAALLAEIRSGRIEAALDVFDNEPLPQDSPFRDPALANVTISPHAAGHTNEAHLAQGQAMVDEIGRLLRREPLQHEVSREGHHHHHH”, the “soluble on expression in E. coli” value was “not soluble”.
In the case of “MSLNFTALDFETANTHKTSICAVGMAIVEDGKVVKTISKLIKPVPDFYSYWNVQIHGITPDMTADAPYFIDVWQELKQYIDYSTLVAHNAAFDVGALRSILTTHEVSFPKTDYFCSCSVSRKVFKEIENHKLSTVCRHIDVPLNHHEAESDAIGAAQIIIKAGERLGANSIEELMAMLKMKLKVEGHHHHHH”, the “soluble on expression in E. coli” value is reported as “not soluble”.
With “MSLNKGSERTFNDLVEFIGEEMDFESGFYNDSYLDRRITARMRRTDTEDYQTYQRLLERDNGEREELLDSLSINVTSFFRNPEAWERLRPVLRELTENNRRVRLWSAPSADGREPYSAAMLALDDPEIDARRVEITATDINADILEEARKGTYATSQTTDIADELEPLDDYTKYIEQDGDTFQVRDQVKEMVTFEQHDLIRGDPKRDFDLVFCRNLLIYIDSEFKVPIFETIRGSLREGGYLMIGMTETLPAECRDSFEAVDKRHRIYRREGHHHHHH” the “soluble on expression in E. coli” value was “not soluble”.
With “MSLNKVWLTGLLTATASGVFSASTLAATEITWWHAMGGQLGEMVNQLATDFNASQSDYKLTPVYKGSYTETLTTGIAAFRAGQAPNILQVFDAGAATIMSSKGVAKPVQDLMIESGYPFTAQDYIAGVRNFYADNTGKMVGMPFNSSTPVLYYNKDMLASVNAQAPQTYEQLEQVAAKLAEKGQAGFAQSLAPWIMFENFKSRHNLPLSDKQNGYQDLSTKIMFNSDDMLMHVKKLKEWSDKGYYKYYGSDWDANQTPFERGEVAMWMGSSGSFGGLRNRVKFNLGTTYLPYWESVTKNPTHTFIGGAALFALQGHTPAQDKGVAAFFAYLTKPETQMNWHKTTGYVPVTNAAYDLTKQSGYYQENPDAEVGVKQLSLPDGEWTKGYRLGYYPQVREVMHREFDNIFSGRSTVESSLNKVEDESAKLLNRFARTVQEGGSHHHHHH” the “soluble on expression in E. coli” value was “soluble”.
In the case of “MSLNLPFRAMVSDLDGTLLTPEHLVGDLTIDTLRALEQKGVDIILATGRNHTDVSSILGKIGAERAVMITSNGARVRDLQGNLLYSNSLPEELVLELYKTPFDTSKVCMNSYQDEGWFTNKDIPAMRQFHKESGFDYNVVDFSKHHGRGTEKVFFIGKTPEDLVEVETYLRDKFGDVTTIVYSALACLEVMNKNVSKGDALKHLLESREYELKDCIAFGDGMNDVEMLSWAGKGCIMKDADIRLKMACPELEVIGSNKEESVARYLRTQFGLDYEGHHHHHH”, the “soluble on expression in E. coli” value is reported as “soluble”.

— the DeepSol protein solubility set
